From patent publication US20260207718A1, “METHODS FOR TREATING LATE ONSET POMPE DISEASE IN PEDIATRIC PATIENTS” (Amicus Therapeutics, Inc., priority 2022, published 2026)
Entries after “also recorded” stand apart in the source; their conditions may differ. Read-outs that look alike come from different tables or passages of the source. Marks after values point to notes of the source that are not given here.

Assays:
[1] = Thermostability assay using SYPRO Orange; assay type: physicochemical
Protocol: The stability of ATB200 in acidic or neutral pH buffers was evaluated in a thermostability assay using SYPRO Orange, as the fluorescence of the dye increases when proteins denature. […] As summarized in Table 10, the addition of miglustat increased the melting temperature (Tm) of ATB200 by nearly 10° C.

[2] = test system: normal and Pompe fibroblast cell lines; experiment: Cellular uptake of rhGAA in fibroblasts; assay type: cell-based
Protocol: The relative cellular uptake of ATB200 and LUMIZYME® rhGAA were compared using normal and Pompe fibroblast cell lines. Comparisons involved 5-100 nM of ATB200 according to the disclosure with 10-500 nM conventional rhGAA product LUMIZYME®. After 16-hr incubation, external rhGAA was inactivated with TRIS base and cells were washed 3-times with PBS prior to harvest. Internalized GAA measured by 4MU-α-Glucoside hydrolysis and was graphed relative to total cellular protein and the results appear in FIGS. 11A-11C.
ATB200 was also shown to be efficiently internalized into cells. […] ATB200 saturates cellular receptors at about 20 nM, while about 250 nM of LUMIZYME® is needed to saturate cellular receptors.

[3] = test system: Gaa KO mice; experiment: Single fiber analysis (LAMP1/LC3) of muscle fibers from Gaa KO mice; assay type: in vivo
Excerpt: FIG. 17 depicts co-immunofluorescent staining of LAMP1 (green) (see for example, “B”) and LC3 (red) (see, for example, “A”) in single fibers isolated from the white gastrocnemius of Gaa KO mice treated with a vehicle, alglucosidase alfa, or ATB200. “C” depicts clearance of autophagic debris and absence of enlarged lysosome. A minimum of 30 fibers were examined from each animal.
As a result, a significant portion of muscle fibers analyzed (36-60%) from ATB200-treated mice appeared normal or near-normal.

[4] = Case: pediatric atypical IOPD patient, PK of ATB200 and AT2221 after 1 year; assay type: in vivo, human
[5] = molecular target: T1, CIMPR (Homo sapiens, UniProt P11717); experiment: CIMPR affinity chromatography (bound vs unbound rhGAA by GAA activity); assay type: binding
Excerpt: Multiple batches of the rhGAA according to the disclosure were produced in shake flasks and in perfusion bioreactors using CHO cell line GA-ATB200, the product of which is referred to as “ATB200.” Weak anion exchange (“WAX”) liquid chromatography was used to fractionate ATB200 rhGAA according to terminal phosphate and sialic acid. Elution profiles were generated by eluting the ERT with increasing amount of salt. The profiles were monitored by UV (A280 nm).
To evaluate the ability of the conventional rhGAAs in MYOZYME® and LUMIZYME® to interact with the CIMPR, the two conventional rhGAA preparations were injected onto a CIMPR affinity column (which binds rhGAA having M6P groups) and the flow through collected. The bound material was eluted with a free M6 gradient. Fractions were collected in 96-well plate and GAA activity assayed by 4MU-α-glucosidase substrate. The relative amounts of unbound (flow through) and bound (M6P eluted) rhGAA were determined based on GAA activity and reported as the fraction of total enzyme. […] Indeed, only 27% of the rhGAA in MYOZYME® and 22% of the rhGAA in LUMIZYME® contained M6P that can be productive to target it to the CIMPR on muscle cells.

[6] = test system: pediatric subjects with late-onset Pompe disease; experiment: ATB200-04 trial: safety in pediatric subjects with LOPD; assay type: in vivo, human; details: ERT-experienced subject, Cohort 2
Excerpt: This study includes subjects with Pompe disease except classic IOPD.
Safety assessments include monitoring of adverse events (AEs), clinical laboratory tests (chemistry, hematology, and urinalysis), physical examinations, vital signs, 12-lead electrocardiogram (ECGs), and detection of cipaglucosidase alfa antibodies.

[7] = molecular target: T1, CIMPR; experiment: CIMPR plate binding assay
Protocol: In addition to having a greater percentage of rhGAA that can bind to the CIMPR, it is important to understand the quality of that interaction. LUMIZYME® and ATB200 receptor binding was determined using a CIMPR plate binding assay. Briefly, CIMPR-coated plates were used to capture GAA. Varying concentrations of rhGAA were applied to the immobilized receptor and unbound rhGAA was washed off. The amount of remaining rhGAA was determined by GAA activity. […] For LUMIZYME®, there is on average only 10% of molecules having a bis-phosphorylated N-glycan. In contrast, on average every rhGAA molecule in ATB200 has at least one bis-phosphorylated N-glycan.
N-glycan analysis via MALDI-TOF mass spectrometry confirmed that on average each ATB200 molecule contains at least one natural bis-M6P N-glycan structure.

[8] = ATB200-04 trial: population PK exposure matching of adolescents to adults; assay type: in vivo, human; set-up: AUC0-24, Mean / AUC0-24, Median / AUC0-24, P5 / AUC0-24, P95 / AUC0-24, Geo Mean: unit not given beside the values; details: for AUC0-24, Geo Mean / AUC0-24, Mean / AUC0-24, Median / AUC0-24, P5 / AUC0-24, P95: predicted
Excerpt: The ATB200-04 trial seeks to evaluate the safety and tolerability of cipaglucosidase alfa/miglustat co-administration.
Subjects have scheduled PK assessments at Day 1, Week 26, and Week 52 for plasma total GAA protein and miglustat.
Population PK parameters include clearance (CL) and volume of distribution (V), estimated from total GAA protein concentrations and miglustat concentrations in plasma.
Methods for Exposure Matching. Pediatric PK data from both clinical trials and expanded access programs were used for exposure matching to adult PK data. […] The previous base population PK models from cipaglucosidase alfa-atga and miglustat were rerun with the updated dataset. To account for longitudinal changes in body size for pediatric patients, the time-varying body weight was used to estimate the effects of body size on PK parameters in the population PK models. The effect of age at baseline on clearance was also evaluated in the PK models. Individual AUC0-24 and Cmax of cipaglucosidase alfa and miglustat were predicted from the PK empirical Bayes estimates (EBEs). The time-varying body weight and baseline age in pediatrics were used in the exposure prediction. PK exposures (AUC0-24 and Cmax) were predicted for each PK visit during the study; Day 1-baseline, Week 26, and Week 52. Additionally, there were unscheduled PK visits for some subjects.
Results for Adolescent Subjects. […] The dose may have been adjusted at a later visit for exposure matching. It should be noted however, that in the early stage of the study, all subjects were started at 20 mg/kg to evaluate safety.

[9] = adolescent Subject 2, 20 mg/kg, Week 52, 83.8 kg
[10] = adolescent Subject 3, 25 mg/kg, Week 52, 64.6 kg
[11] = adolescent Subject 4, 25 mg/kg, Week 64, 53.3 kg
[12] = adolescent Subject 5, 25 mg/kg, Week 52, 43.7 kg
[13] = adolescent Subject 6, 25 mg/kg, Week 52, 36.5 kg
[14] = adolescent Subject 7, 25 mg/kg, Week 52, 60.3 kg
[15] = adolescent Subject 8, 25 mg/kg, Week 72, 38.5 kg

T1 sequence (P11717 41-2491, species assumed): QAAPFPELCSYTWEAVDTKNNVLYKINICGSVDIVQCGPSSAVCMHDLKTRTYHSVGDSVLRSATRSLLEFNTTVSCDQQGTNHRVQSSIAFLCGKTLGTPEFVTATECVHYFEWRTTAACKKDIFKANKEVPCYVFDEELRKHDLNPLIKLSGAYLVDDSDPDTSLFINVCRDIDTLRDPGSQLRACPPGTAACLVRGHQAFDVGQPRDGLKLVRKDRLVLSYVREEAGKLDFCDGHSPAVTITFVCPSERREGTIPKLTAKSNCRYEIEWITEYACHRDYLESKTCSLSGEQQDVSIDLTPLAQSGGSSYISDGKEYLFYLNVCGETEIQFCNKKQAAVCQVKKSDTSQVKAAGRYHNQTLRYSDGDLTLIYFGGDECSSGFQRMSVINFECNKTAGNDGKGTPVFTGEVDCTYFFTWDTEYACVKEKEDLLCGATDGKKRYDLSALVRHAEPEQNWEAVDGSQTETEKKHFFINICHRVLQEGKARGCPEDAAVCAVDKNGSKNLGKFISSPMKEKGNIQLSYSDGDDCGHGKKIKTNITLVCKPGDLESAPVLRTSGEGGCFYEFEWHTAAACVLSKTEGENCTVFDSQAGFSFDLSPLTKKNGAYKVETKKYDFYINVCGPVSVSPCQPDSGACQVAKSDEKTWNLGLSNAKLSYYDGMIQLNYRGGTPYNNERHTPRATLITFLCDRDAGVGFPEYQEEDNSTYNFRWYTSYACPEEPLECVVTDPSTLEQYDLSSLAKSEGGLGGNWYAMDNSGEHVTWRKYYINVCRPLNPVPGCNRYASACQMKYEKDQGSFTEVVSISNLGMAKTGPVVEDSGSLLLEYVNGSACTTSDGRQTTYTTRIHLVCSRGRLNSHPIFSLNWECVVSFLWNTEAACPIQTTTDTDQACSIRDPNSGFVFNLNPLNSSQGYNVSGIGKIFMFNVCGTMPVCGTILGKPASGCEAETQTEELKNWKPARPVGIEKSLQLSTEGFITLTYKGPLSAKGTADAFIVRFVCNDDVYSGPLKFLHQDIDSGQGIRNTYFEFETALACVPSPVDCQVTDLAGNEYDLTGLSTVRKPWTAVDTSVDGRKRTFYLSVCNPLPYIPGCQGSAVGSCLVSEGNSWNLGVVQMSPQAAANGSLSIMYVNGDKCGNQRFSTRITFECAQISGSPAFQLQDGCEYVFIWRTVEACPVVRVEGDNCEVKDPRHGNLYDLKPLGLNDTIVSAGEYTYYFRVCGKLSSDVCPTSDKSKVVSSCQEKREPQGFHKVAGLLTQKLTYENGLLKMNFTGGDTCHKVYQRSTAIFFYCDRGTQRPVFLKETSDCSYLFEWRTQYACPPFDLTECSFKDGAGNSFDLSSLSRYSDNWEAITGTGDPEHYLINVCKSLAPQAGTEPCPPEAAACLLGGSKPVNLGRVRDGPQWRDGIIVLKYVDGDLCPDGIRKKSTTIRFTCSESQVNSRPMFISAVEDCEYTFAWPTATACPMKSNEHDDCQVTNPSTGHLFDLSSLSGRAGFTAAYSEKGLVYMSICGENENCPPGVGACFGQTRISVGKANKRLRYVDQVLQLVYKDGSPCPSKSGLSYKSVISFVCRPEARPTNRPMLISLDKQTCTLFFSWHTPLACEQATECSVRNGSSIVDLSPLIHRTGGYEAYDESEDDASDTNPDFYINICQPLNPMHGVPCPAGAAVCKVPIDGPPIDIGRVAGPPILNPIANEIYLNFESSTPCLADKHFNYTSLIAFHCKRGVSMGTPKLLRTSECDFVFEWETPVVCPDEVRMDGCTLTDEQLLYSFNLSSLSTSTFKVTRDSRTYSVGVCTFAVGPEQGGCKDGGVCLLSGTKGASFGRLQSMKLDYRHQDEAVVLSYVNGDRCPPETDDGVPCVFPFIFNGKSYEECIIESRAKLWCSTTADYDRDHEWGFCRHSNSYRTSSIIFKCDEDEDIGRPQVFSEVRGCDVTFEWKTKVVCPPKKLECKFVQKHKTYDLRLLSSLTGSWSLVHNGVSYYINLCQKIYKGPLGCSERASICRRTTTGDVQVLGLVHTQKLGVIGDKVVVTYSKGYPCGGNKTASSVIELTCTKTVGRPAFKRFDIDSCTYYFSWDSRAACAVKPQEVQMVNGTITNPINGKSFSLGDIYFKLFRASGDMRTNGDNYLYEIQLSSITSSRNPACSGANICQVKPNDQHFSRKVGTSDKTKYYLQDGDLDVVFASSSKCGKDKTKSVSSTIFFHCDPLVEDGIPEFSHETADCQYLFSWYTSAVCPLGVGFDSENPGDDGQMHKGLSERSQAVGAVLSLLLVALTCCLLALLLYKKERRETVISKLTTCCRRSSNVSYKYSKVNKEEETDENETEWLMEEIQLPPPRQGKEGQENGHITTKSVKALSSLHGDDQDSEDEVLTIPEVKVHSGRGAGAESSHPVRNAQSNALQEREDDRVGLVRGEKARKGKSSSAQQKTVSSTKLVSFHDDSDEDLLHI

## ATB200: recombinant human acid α-glucosidase with high content of N-glycans bearing mono-M6P and bis-M6P, produced from GA-ATB200 CHO cell line
[1]; pH 5.2
  Tm: 67.3 °C
[1]; pH 7.4
  Tm: 56.2 °C
  increase of melting temperature (Tm) by addition of miglustat: ~10 °C
[1]; pH 7.4 + 10 μM miglustat
  Tm: 61.6 °C
[1]; pH 7.4 + 30 μM miglustat
  Tm: 62.9 °C
[1]; pH 7.4 + 100 μM miglustat
  Tm: 66.0 °C
[2]; 16-hr incubation
  concentration that saturates cellular receptors: about 20 nM
[2]; 16-hr incubation, extrapolated, FIG. 11C
  uptake efficiency constant (Kuptake): 2-3 nm
[2]; FIGS. 11A-11B
  internalization into normal and Pompe fibroblast cells: internalized to a greater degree than the conventional rhGAA product LUMIZYME®
[3]
  Fibers with Autophagy Buildup: 40-64%*
  Fibers with Normal or Near-normal Appearance: 36-60%
[3]; white gastrocnemius
  Lysosome Enlargement: dramatically decreased lysosome size; also recorded: Dramatic size
[4]; Adult (10th-90th percentile)
  ATB200 AUC: 1001 to 1924 µg·h/mL
  ATB200 Cmax: 223 to 363 µg/mL
[4]; Adult (median)
  ATB200 AUC: 1415 µg·h/mL
  ATB200 Cmax: 294 µg/mL
[4]; patient with atypical IOPD, 12Y5M, 46.5 kg, ATB200 20 mg/kg + AT2221 195 mg biweekly for 1 year
  ATB200 AUC: 1257 µg·h/mL
[4]; patient with atypical IOPD, 12Y5M, 20 mg/kg
  ATB200 Cmax: 245 µg/mL
[5]
  rhGAA that bound to the CIMPR: more than 70%
[5]; listed as ATB200 rhGAA
  rhGAA that bound to the CIMPR: ≥ 70%
[6]
  investigator-assessed relatedness of anaphylaxis event (both episodes): definitely related
[7]; CIMPR plate binding assay, FIG. 10A
  binding to CIMPR compared with LUMIZYME®: bound to CIMPR significantly better than LUMIZYME®
[7]; M6P receptor plate binding assays
  Kd: 2 to 4 nM
[8]; 90% CI (81.96, 96.88)
  AUC0-24, geometric LSM Ratio adolescents to adults: 89.11
[8]; 90% CI (82.51, 104.69)
  Cmax, geometric LSM Ratio adolescents to adults: 92.94
[8]; adolescent Subject 1, 20 mg/kg, Week 52, 77.9 kg
  individual predicted AUC0-24: 1396
[8]; [9]
  individual predicted AUC0-24: 1315
  individual predicted Cmax: 277
[8]; [10]
  individual predicted AUC0-24: 1318
  individual predicted Cmax: 305
[8]; [11]
  individual predicted AUC0-24: 1472
  individual predicted Cmax: 294
[8]; [12]
  individual predicted AUC0-24: 1175
  individual predicted Cmax: 240
[8]; [13]
  individual predicted AUC0-24: 1047
  individual predicted Cmax: 222
[8]; [14]
  individual predicted AUC0-24: 1269
  individual predicted Cmax: 273
[8]; [15]
  individual predicted AUC0-24: 1138
  individual predicted Cmax: 229
[8]; adults N=100, adolescents N=8
  predicted AUC0-24 and Cmax for adolescents relative to adult 5th and 95th percentile range: well within the adult 5th and 95th percentile range
[8]; Adolescents N=8
  AUC0-24, Geo Mean: 1259
  AUC0-24, Mean: 1266
  AUC0-24, Median: 1292
  AUC0-24, P5: 1079
  AUC0-24, P95: 1446
[8]; Adults N=100
  AUC0-24, Geo Mean: 1413
  AUC0-24, Mean: 1461
  AUC0-24, Median: 1433
  AUC0-24, P5: 898
  AUC0-24, P95: 2162
